Experimental data reported in US20110091994A1, “Methods for Screening Compounds for Treating and/or Preventing an Hepatitis C Virus Infection” (priority 2008, published 2011).

B1: RASAL2 (protein, UniProt Q9UJF2 1-1139, looked up)
Ras GTPase-activating protein …: MQTPEVPAERSPRRRSISGTSTSEKPNSMDTANTSPFKVPGFFSKRLKGSIKRTKSQSKLDRNTSFRLPSLRSTDDRSRGLPKLKESRSHESLLSPCSTVECLDLGRGEPVSVKPLHSSILGQDFCFEVTYLSGSKCFSCNSASERDKWMENLRRTVQPNKDNCRRAENVLRLWIIEAKDLAPKKKYFCELCLDDTLFARTTSKTKADNIFWGEHFEFFSLPPLHSITVHIYKDVEKKKKKDKNNYVGLVNIPTASVTGRQFVEKWYPVSTPTPNKGKTGGPSIRIKSRFQTITILPMEQYKEFAEFVTSNYTMLCSVLEPVISVRNKEELACALVHILQSTGRAKDFLTDLVMSEVDRCGEHDVLIFRENTIATKSIEEYLKLVGQQYLHDALGEFIKALYESDENCEVDPSKCSSSELIDHQSNLKMCCELAFCKIINSYCVFPRELKEVFASWKQQCLNRGKQDISERLISASLFLRFLCPAIMSPSLFNLMQEYPDDRTSRTLTLIAKVIQNLANFAKFGNKEEYMAFMNDFLEHEWGGMKRFLLEISNPDTISNTPGFDGYIDLGRELSVLHSLLWEVVSQLDKGENSFLQATVAKLGPLPRVLADITKSLTNPTPIQQQLRRFTEHNSSPNVSGSLSSGLQKIFEDPTDSDLHKLKSPSQDNTDSYFRGKTLLLVQQASSQSMTYSEKDERESSLPNGRSVSLMDLQDTHAAQVEHASVMLDVPIRLTGSQLSITQVASIKQLRETQSTPQSAPQVRRPLHPALNQPGGLQPLSFQNPVYHLNNPIPAMPKASIDSSLENLSTASSRSQSNSEDFKLSGPSNSSMEDFTKRSTQSEDFSRRHTVPDRHIPLALPRQNSTGQAQIRKVDQGGLGARAKAPPSLPHSASLRSTGSMSVVSAALVAEPVQNGSRSRQQSSSSRESPVPKVRAIQRQQTQQVQSPVDSATMSPVERTAAWVLNNGQYEEDVEETEQNLDEAKHAEKYEQEITKLKERLRVSSRRLEEYERRLLVQEQQMQKLLLEYKARLEDSEERLRRQQEEKDSQMKSIISRLMAVEEELKKDHAEMQAVIDAKQKIIDAQEKRIVSLDSANTRLMSALTQVKERYSMQVRNGISPTNPTKLSITENGEFKNSSC
B2: GBP2 (protein, UniProt P32456 1-588, looked up)
Guanylate-binding protein 2: MAPEINLPGPMSLIDNTKGQLVVNPEALKILSAITQPVVVVAIVGLYRTGKSYLMNKLAGKKNGFSLGSTVKSHTKGIWMWCVPHPKKPEHTLVLLDTEGLGDIEKGDNENDSWIFALAILLSSTFVYNSMGTINQQAMDQLHYVTELTDRIKANSSPGNNSVDDSADFVSFFPAFVWTLRDFTLELEVDGEPITADDYLELSLKLRKGTDKKSKSFNDPRLCIRKFFPKRKCFVFDWPAPKKYLAHLEQLKEEELNPDFIEQVAEFCSYILSHSNVKTLSGGIPVNGPRLESLVLTYVNAISSGDLPCMENAVLALAQIENSAAVEKAIAHYEQQMGQKVQLPTETLQELLDLHRDSEREAIEVFMKNSFKDVDQMFQRKLGAQLEARRDDFCKQNSKASSDCCMALLQDIFGPLEEDVKQGTFSKPGGYRLFTQKLQELKNKYYQVPRKGIQAKEVLKKYLESKEDVADALLQTDQSLSEKEKAIEVERIKAESAEAAKKMLEEIQKKNEEMMEQKEKSYQEHVKQLTEKMERDRAQLMAEQEKTLALKLQEQERLLKEGFENESKRLQKDIWDIQMRSKSLEPIC
B3: PSMB9 (protein, UniProt P28065 21-219, looked up)
Proteasome subunit beta type-9: TTIMAVEFDGGVVMGSDSRVSAGEAVVNRVFDKLSPLHERIYCALSGSAADAQAVADMAAYQLELHGIELEEPPLVLAAANVVRNISYKYREDLSAHLMVAGWDQREGGQVYGTLGGMLTRQPFAIGGSGSTFIYGYVDAAYKPGMSPEECRRFTTDAIALAMSRDGSSGGVIYLVTITAAGVDHRVILGNELPKFYDE
B4: CCDC21 (protein, UniProt Q6P2H3 1-762, looked up)
Centrosomal protein of 85 kDa: MAMQEKYPTEGISHVTSPSSDVIQKGSSLGTEWQTPVISEPFRSRFSRCSSVADSGDTAIGTSCSDIAEDFCSSSGSPPFQPIKSHVTIPTAHVMPSTLGTSPAKPNSTPVGPSSSKLPLSGLAESVGMTRNGDLGAMKHSPGLSRDLMYFSGATGENGIEQSWFPAVGHERQEEARKFDIPSMESTLNQSAMMETLYSDPHHRVRFHNPRTSTSKELYRVLPEAKKAPGSGAVFERNGPHSNSSGVLPLGLQPAPGLSKPLPSQVWQPSPDTWHPREQSCELSTCRQQLELIRLQMEQMQLQNGAICHHPAAFGPSLPILEPAQWISILNSNEHLLKEKELLIDKQRKHISQLEQKVRESELQVHSALLGRPAPFGDVCLLRLQELQRENTFLRAQFAQKTEALSREKIDLEKKLSASEVEVQLIRESLKVALQKHSEEVKKQEERVKGRDKHINNLKKKCQKESEQNREKQQRIETLERYLADLPTLEDHQKQSQQLKDSELKSTELQEKVTELESLLEETQAICREKEIQLESLRQREAEFSSAGHSLQDKQSVEETSGEGPEVEMESWQKRYDSLQKIVEKQQQKMDQLRSQVQSLEQEVAQEEGTSQALREEAQRRDSALQQLRTAVKELSVQNQDLIEKNLTLQEHLRQAQPGSPPSPDTAQLALELHQELASCLQDLQAVCSIVTQRAQGHDPNLSLLLGIHSAQHPETQLDLQKPDVIKRKLEEVQQLRRDIEDLRTTMSDRYAQDMGENCVTQ
B5: GOLGA2 (protein, UniProt Q08379 1-1002, looked up)
Golgin subfamily A member 2: MWPQPRLPPRPAMSEETRQSKLAAAKKKLREYQQRNSPGVPTGAKKKKKIKNGSNPETTTSGGCHSPEDTPKDNAATLQPSDDTVLPGGVPSPGASLTSMAASQNHDADNVPNLMDETKTFSSTESLRQLSQQLNGLVCESATCVNGEGPASSANLKDLESRYQQLAVALDSSYVTNKQLNITIEKLKQQNQEITDQLEEEKKECHQKQGALREQLQVHIQTIGILVSEKAELQTALAHTQHAARQKEGESEDLASRLQYSRRRVGELERALSAVSTQQKKADRYNKELTKERDALRLELYKNTQSNEDLKQEKSELEEKLRVLVTEKAGMQLNLEELQKKLEMTELLLQQFSSRCEAPDANQQLQQAMEERAQLEAHLGQVMESVRQLQMERDKYAENLKGESAMWRQRMQQMSEQVHTLREEKECSMSRVQELETSLAELRNQMAEPPPPEPPAGPSEVEQQLQAEAEHLRKELEGLAGQLQAQVQDNEGLSRLNREQEERLLELERAAELWGEQAEARRQILETMQNDRTTISRALSQNRELKEQLAELQSGFVKLTNENMEITSALQSEQHVKRELGKKLGELQEKLSELKETVELKSQEAQSLQQQRDQYLGHLQQYVAAYQQLTSEKEVLHNQLLLQTQLVDQLQQQEAQGKAVAEMARQELQETQERLEAATQQNQQLRAQLSLMAHPGEGDGLDREEEEDEEEEEEEAVAVPQPMPSIPEDLESREAMVAFFNSAVASAEEEQARLRGQLKEQRVRCRRLAHLLASAQKEPEAAAPAPGTGGDSVCGETHRALQGAMEKLQSRFMELMQEKADLKERVEELEHRCIQLSGETDTIGEYIALYQSQRAVLKERHREKEEYISRLAQDKEEMKVKLLELQELVLRLVGDRNEWHGRFLAAAQNPADEPTSGAPAPQELGAANQQGDLCEVSLAGSVEPAQGEAREGSPRDNPTAQQIMQLLREMQNPRERPGLGSNPCIPFFYRADENDEVKITVI
B6: GPS2 (protein, UniProt Q13227 1-327, looked up)
G protein pathway suppressor 2: MPALLERPKLSNAMARALHRHIMMERERKRQEEEEVDKMMEQKMKEEQERRKKKEMEERMSLEETKEQILKLEEKLLALQEEKHQLFLQLKKVLHEEEKRRRKEQSDLTTLTSAAYQQSLTVHTGTHLLSMQGSPGGHNRPGTLMAADRAKQMFGPQVLTTRHYVGSAAAFAGTPEHGQFQGSPGGAYGTAQPPPHYGPTQPAYSPSQQLRAPSAFPAVQYLSQPQPQPYAVHGHFQPTQTGFLQPGGALSLQKQMEHANQQTGFSDSSSLRPMHPQALHPAPGLLASPQLPVQMQPAGKSGFAATSQPGPRLPFIQHSQNPRFYHK

molecular target: T1, HCV ORFs (Gal4-DB fusions) (Hepatitis C virus genotype 1b, UniProt Q9WMX2); assay: not given; assay type: binding, HCV genotype 1b, isolate con1; conditions: HCV protein NS3 as bait; human protein as prey
T1 construct: expressed in transfected cells; host or cells: Saccharomyces cerevisiae MAV203 (IMAP1) / AH109 (IMAP2)
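Wherever IMAP Y2H IMAP2 (number of IST) is given: yeast two-hybrid screens using HCV genotype 1b proteins fused to Gal4-DB as baits against prey cDNA libraries from human spleen and foetal brain, IMAP1 via transformation and IMAP2 via mating.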
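Wherever Interaction with viral protein is given: yeast two-hybrid screens using HCV genotype 1b proteins fused to Gal4-DB as baits against prey cDNA libraries from human spleen and foetal brain, IMAP1 via transformation and IMAP2 via mating.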

Molecule	IMAP Y2H IMAP2 (number of IST)
B1	3
B2	26
B3	1
B4	2

same assay, conditions: HCV protein NS5A as bait; human protein as prey

Molecule	IMAP Y2H IMAP2 (number of IST)
B3	38
B5	15
B6	1

same assay, conditions: HCV protein NS5B as bait; human protein as prey

Molecule	IMAP Y2H IMAP2 (number of IST)
B3	14

test system: HCV ORFs (Gal4-DB fusions); assay: not given; assay type: binding, HCV genotype 1b, isolate con1; conditions: human protein listed by gene symbol; the value names the HCV protein it interacts with

Molecule	Interaction with viral protein
B1	NS3
B2	NS3
B3	NS3 and NS5A
B5	NS5A
B6	NS5A
B4	NS3

molecular target: T2, GST-tagged viral proteins (Hepatitis C virus genotype 1b, UniProt Q9WMX2); assay: Validation by co-affinity purification (CoAP); assay type: binding, HCV genotype 1b, isolate con1; set-up: key: +: IMAP validation; −: not validated; NA: non assayable due to default of protein expression or to cellular protein directly interacting with GST; conditions: interaction with HCV protein NS5A
T2 construct: expressed in transfected cells; host or cells: HEK-293T
Excerpt: C. Validation of Y2H interactions by co-affinity purification assay. Nine co-AP positive assays are shown, representing: NS5A-SORBS2 (1), NS3-CALCOCO2 (2), NS5A-BIN1 (3), NS5A-MOBK1B (4), NS5A-EFEMP1 (5), NS3-PSMB9 and NS5A-PSMB9 (6), NS5A-PPPIRI3L (7), NS3-RASAL2 (8). After pull-down with GST tagged viral baits (+) or with negative control GST alone (−), cellular preys are identified with anti-Flag antibody. Anti-GST antibody identifies either GST alone or GST-tagged viral baits. Expression of cellular preys in cell lysate is controlled by anti-Flag (bottom panel). […]
A random pool of 59 IMAP Y2H interactions was chosen for CoAP assays. Cellular ORFs (interacting domains found in Y2H screens) were cloned by recombinational cloning from a pool of human cDNA library or the MGC cDNA plasmids using KOD polymerase (Toyobo) into pDONR207 (Invitrogen). After validation by sequencing, these ORFs were transferred to pCi-neo-3xFLAG gateway-converted, and HCV ORFs were transferred into pDEST27 (GST fusion in N-term). HEK-293T cells were then co-transfected (JetPei, Polyplus) by each pair of plasmid encoding interacting proteins. Controls are GST alone against 3xFLAG-tagged preys. Two days after transfection, cells were harvested and lysed (0.5% NP-40, 20 mM Tris-HCl (pH 8.0), 180 mM NaCl, 1 mM EDTA, and complete protease inhibitor cocktail). Cell lysates were cleared by centrifugation for 20 min at 13,000 rpm at 4° C. and soluble protein complexes were purified using Glutathione Sepharose 4B beads (GE Healthcare). Beads were then washed extensively four times with lysis buffer and proteins were separated on SDS-PAGE and transferred to nitrocellulose membrane. GST-tagged viral proteins and 3xFLAG-tagged cellular proteins were detected using standard immunoblotting techniques using anti-GST (Covance) and anti-FLAG M2 (Sigma) monoclonal antibodies (21).

Molecule	CoAP
B3	+
B5	+
B6	+

same assay, conditions: validation of interaction with HCV protein NS3

Molecule	CoAP
B1	+
B2	+
B3	+
B4	+
